Consider two substances from paper PMC10635007.

Experiment [1] deals with E-cadherin control (expressed without FUT2; without terminal fucosylation) (UniProt P12830). The experiment can be described thus: atomic force microscopy.
In experiment [2] the target is FUT2-fucosylated E-cadherin (co-expressed with FUT2; with terminal fucosylation) (UniProt P12830). The experiment can be described thus: atomic force microscopy.

As to “E-cadherin control (expressed without FUT2; without terminal fucosylation) (from UniProt P12830 23-882) (natural protein)”, the mean maximum adhesion force in experiment [1] was 63.5 nN.

As to “FUT2-fucosylated E-cadherin (co-expressed with FUT2; with terminal fucosylation) (from UniProt P12830 23-882) (natural protein)”, the mean maximum adhesion force in experiment [2] amounted to 79.8 nN.
